In article PMC4955127 (Biotechnology for Biofuels, 2016):

Experiments:
Bgl3A = molecular target: T1, Bgl3A (Evansstolkia leycettana, UniProt A0A1B0VFN7); test: glucose inhibition of pNPG hydrolysis; assay type: biochemical; conditions: product inhibition; substrate pNPG
T1 construct: mature enzyme without native signal peptide (residues 1-19 of 737 removed)
T1 sequence (A0A1B0VFN7 20-737): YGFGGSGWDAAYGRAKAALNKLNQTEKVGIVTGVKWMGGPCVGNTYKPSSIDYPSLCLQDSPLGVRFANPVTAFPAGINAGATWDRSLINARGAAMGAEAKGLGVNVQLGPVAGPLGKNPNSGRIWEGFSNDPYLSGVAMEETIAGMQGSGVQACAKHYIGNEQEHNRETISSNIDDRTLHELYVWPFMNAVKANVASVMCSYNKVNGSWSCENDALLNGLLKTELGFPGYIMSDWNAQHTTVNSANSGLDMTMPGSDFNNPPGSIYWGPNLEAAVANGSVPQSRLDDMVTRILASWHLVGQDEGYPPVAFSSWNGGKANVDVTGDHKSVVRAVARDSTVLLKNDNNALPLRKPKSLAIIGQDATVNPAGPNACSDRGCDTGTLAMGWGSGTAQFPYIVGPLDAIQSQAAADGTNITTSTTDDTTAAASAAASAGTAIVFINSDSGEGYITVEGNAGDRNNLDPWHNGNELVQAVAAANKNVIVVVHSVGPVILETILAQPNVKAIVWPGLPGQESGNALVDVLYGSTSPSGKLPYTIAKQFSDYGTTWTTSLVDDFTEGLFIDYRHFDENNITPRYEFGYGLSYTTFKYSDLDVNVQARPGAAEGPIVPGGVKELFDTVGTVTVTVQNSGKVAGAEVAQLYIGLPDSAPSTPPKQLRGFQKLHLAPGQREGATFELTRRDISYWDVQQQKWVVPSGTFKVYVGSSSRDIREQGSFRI

purified protein = substrate: O=[N+]([O-])c1ccc(O[C@@H]2O[C@H](CO)[C@@H](O)[C@H](O)[C@H]2O)cc1; test: purified protein; conditions: 100 mM Na2HPO4-citric acid, optimal conditions (pH 4.5, 75 °C), 5 min

| Molecule | Ki (Bgl3A) | Km (purified protein) | Vmax (purified protein) | kcat (purified protein) | kcat/Km (purified protein) |
| --- | --- | --- | --- | --- | --- |
| OC[C@H]1OC(O)[C@H](O)[C@@H](O)[C@@H]1O (some centres unmarked) [glucose] | 14 mM |  |  |  |  |
| Bgl3A (Evansstolkia leycettana) (protein) YGFGGSGWDAAYGRAKAALNKLNQTEKVGIVTGVKWMGGPCVGNTYKPSSIDYPSLCLQDSPLGVRFANPVTAFPAGINAGATWDRSLINARGAAMGAEAKGLGVNVQLGPVAGPLGKNPNSGRIWEGFSNDPYLSGVAMEETIAGMQGSGVQACAKHYIGNEQEHNRETISSNIDDRTLHELYVWPFMNAVKANVASVMCSYNKVNGSWSCENDALLNGLLKTELGFPGYIMSDWNAQHTTVNSANSGLDMTMPGSDFNNPPGSIYWGPNLEAAVANGSVPQSRLDDMVTRILASWHLVGQDEGYPPVAFSSWNGGKANVDVTGDHKSVVRAVARDSTVLLKNDNNALPLRKPKSLAIIGQDATVNPAGPNACSDRGCDTGTLAMGWGSGTAQFPYIVGPLDAIQSQAAADGTNITTSTTDDTTAAASAAASAGTAIVFINSDSGEGYITVEGNAGDRNNLDPWHNGNELVQAVAAANKNVIVVVHSVGPVILETILAQPNVKAIVWPGLPGQESGNALVDVLYGSTSPSGKLPYTIAKQFSDYGTTWTTSLVDDFTEGLFIDYRHFDENNITPRYEFGYGLSYTTFKYSDLDVNVQARPGAAEGPIVPGGVKELFDTVGTVTVTVQNSGKVAGAEVAQLYIGLPDSAPSTPPKQLRGFQKLHLAPGQREGATFELTRRDISYWDVQQQKWVVPSGTFKVYVGSSSRDIREQGSFRI |  | 180 µM | 1310 µmol/min/mg | 1660 s⁻¹ | 9.1e+06 M⁻¹ s⁻¹ |
